Experimental findings from PMC3332085 are described below.

Read-outs that look alike come from different tables or passages of the source.

What all share (experiment): SAXS
Experiment [1] deals with wild type yeast frataxin (Yfh1wt; residues 52-174) (S. cerevisiae) (UniProt Q07540).
The target is the same in experiment [2]. The source holds these as a separate data set.
Experiment [3] shares this target. This is another data set of the same source.

As usually defined, the stoichiometry N is the number of molecules, sites or subunits per partner or assembly. In experiment [1], “wild type yeast frataxin (Yfh1wt; residues 52-174) (from UniProt Q07540 52-174) (natural protein)” came in with a distribution, hexamer of 9%; a distribution, monomer of 67%; a distribution, trimer of 24%; a stoichiometry N of 2. Besides, in experiment [2], the distribution, hexamer stood at 13%; the distribution, monomer was found to be 54%; the distribution, trimer amounted to 33%. Also, in experiment [3], the distribution, 42-mer is 11%; the distribution, hexamer was 6%; the distribution, monomer stood at 26%; the distribution, trimer worked out at 57%.
